Results from the supplement of paper PMC7125110.
± gives the standard error. This sample holds only a part of the variants without activity.

B1: glmS ribozyme (parent)
chain: AUAAAAGCGCCAGAACUACAGAAAUGUAGUUGACGAGGAGGAGGUUUAUCGAAUUUUCGGCGGAUGCCUCCAAA

Columns and labels:
Details in all cases: with glucosamine-6-phosphate
[1] = variants of: B1; assay: self-cleavage kobs at 160 uM GlcN6P; higher = faster cleavage; RNA array
Summary of the method: (§1)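 E. coli RNA polymerase transcribed barcoded ribozyme variants in situ on sequenced MiSeq chips, which were tracked via a hybridised Cy3 probe at 37 °C. Tiles were imaged over ~14 h after glucosamine-6-phosphate (40 μM to 10 mM) in HEPES/KCl/Mg(OAc)2 buffer was flowed in. Normalised per-tile medians were fit to one- or two-exponential decays for kobs, and kcat and KM came from weighted Michaelis–Menten fits.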

[2] = variants of: B1; assay: self-cleavage kobs at 2500 uM GlcN6P; higher = faster cleavage; RNA array
Summary of the method: as §1

[3] = variants of: B1; assay: self-cleavage kobs at 640 uM GlcN6P; higher = faster cleavage; RNA array
Summary of the method: as §1

[4] = variants of: B1; assay: self-cleavage kobs at 10000 uM GlcN6P; higher = faster cleavage; RNA array
Summary of the method: as §1

Variant	self-cleavage kobs at 160 uM GlcN6P [1] [s⁻¹]	self-cleavage kobs at 2500 uM GlcN6P [2] [s⁻¹]	self-cleavage kobs at 640 uM GlcN6P [3] [s⁻¹]	self-cleavage kobs at 10000 uM GlcN6P [4] [s⁻¹]
AUAAAAGCGCCAGAACUACAGAAAUGUAGUUGACGAGGAGGAGCUUUAUCGAAUUUUCGGCGGUUGCCUCCAAA	< 1e-05	< 1e-05		
AUAAAUGCGCGAGAACUACAGAAAUGUAGGAGACGAGGAGGUGGUUUAUCGAAUUUUCGGCGGAUGCCUCCAAA	< 1e-05	< 1e-05	< 1e-05	
AUAAAAGCGCCAGAAUUACAGAAAUGUAGUCGACGAGGAGGAGGUUUAUCGAAUUUUCGGCGGAUGCUUCCAAA	6.38e-05 ± 2.3e-05	0.00018 ± 4e-05	0.000149 ± 3.2e-05	
AUAAAGUCGCCAGGACUACAGAAAUGUAGUUGCCGAGGAGGAGGUUUAUCGAAUUUUCGGCGGAUGCCUCCAAA	< 1e-05			
AUAAAAGUGCCAGAACUACAGAAAUGUAGUUAACGAGGAGGAGGAUUAUCGAAUUCUCGGCGGAUGCCUCCAAA	< 1e-05	< 1e-05	< 1e-05	< 1e-05
AUAAAAGCGCCAGAGAUACAGAAAUGUAGUUGACGAGGAGGAGGUUUAUCGAAUUUUCGGCGGAUGCCUCCAAA	0.000119 ± 4.3e-05	0.000524 ± 0.00013	0.000305 ± 7.7e-05	
AUAAAAGAGCCUGAACUACAGAAAUGUAGUUGACGAGGAGGAGGUUUAUCGAAUUUUCGGCGGAUGUCUCCAAA	< 1e-05	< 1e-05	< 1e-05	
AUAAAAGGGCCAGAACUACAGAAAUGUAGUUGACGAGGAGGAGGUUUAUCGAAUUUCCGGCUGAUGCCUCCAAA	< 1e-05	< 1e-05	< 1e-05	< 1e-05
AUAAAAGGGCCAGAAGUACAGAAAUGUAGUUGACGAGGAGGAGGUUUAUCGAAUUUUCGGCGGAUGCCUCCAAA	< 1e-05	< 1e-05	< 1e-05	< 1e-05
AUAAAAGCGCCAGAACUACAGAAAUGUAGUUGCCGAGGAGGAGGUUUAUCUAAUUUUCGGCGGAUGCCUCCAAA	< 1e-05		< 1e-05	< 1e-05
AUAAAAGCGCCAGAACUACAGAAAUGUAGUAGACGAGGAGGAGGUUUAUCGAAUUUUCGGGGGAUGCCUCCAAA	< 1e-05			< 1e-05
AUAAAGGCGCCAGAACUACAGAAAUGUAGUUGACGAGGAGGAGGUCUAUCGAAUUUGCGGCGGAUGCCUCCAAA	< 1e-05			
AUAAAAGCGCCAGAACUACAGAAAUGUAAUUGACGAGGAGGAGGUUUAUCGAUUUUUCGGCGGAUGACUCCAAA	7.84e-05 ± 1.8e-05	0.000241 ± 7.1e-05	0.00017 ± 4e-05	
AUAAAAGCGCCAGAACUACAGAAAUGUAGUAGACCAGGAGGAGGUUUGUCGAAUUUUCGGCGGAUGCCUCCAAA	< 1e-05		< 1e-05	
AUAAAAGCGCCAGAACUACAGAAAUGUAGAUGACGAGGAGGAGGUUUAUCUAAUUUUCGGCGGAUGCCUCCAAA	< 1e-05	< 1e-05	< 1e-05	< 1e-05
AUAAAAGGGCCAGAACUACAGAAAUGUAGGUGACGAAGAGGAGGUUUAUCGAAUUUUCGGCGGAUACCGCCAAA	0.000132 ± 4.9e-05		0.000166 ± 6e-05	
AUAAAAGCACAAGAACUACAGAAAUGUAGUUGACAAGGAGGAGGUUCAUCGAAUUUUCGGCGGAUGCAUCCAAA	< 1e-05	< 1e-05		
AUAAAAGCGCCAGAACUACAGAAAUGUAGUUGACGAGGUGGGGGUUUAUCGAAUUUUCGUCGGAUGCCUCCAAA	< 1e-05		< 1e-05	
AUAAAAUCGCUAGAACUACAGAAAUGUAUAUGACGAGGAGGAGGUUUAUCGAAUUUUCGGCGGAUGCCUCCAAA	< 1e-05		< 1e-05	
AUAAAAGCGCCAGAACUACAGAAAUGUAUUUGACGAGGAGGAGGUUUCUCGAAUUUUCAGCGGAUGCCUCCAAA	< 1e-05	< 1e-05	< 1e-05	< 1e-05
AUAAAAGCGCCAGAACUACAGAAAUGUAGUUGAUGAGGAGGAGGCUUAUCGAAUUUUCGGCGGAAGCCUCCAAA	< 1e-05		< 1e-05	
AUAAAAGCGCCAGAACUACAGAAAUGUAGUUGACCAGGAGGAGGUUUAUCGAAUUUGCCGCGGAUGCCUCCAAA	< 1e-05			
AUAAAAGCGCCAGAACUACAGAAAUGUACUUGCCGAGGAGGAGGUUUAUCGAAUUUUCGGAGGAUGCCUCCAAA	< 1e-05			
AUAAAAGCGGCAGAACUAAAGAAAUGUAGUUGACGAGGAGGAGGUUUCUCGAAUUUUCGGCGGAUGCCUCCAAA	< 1e-05		< 1e-05	
AUAAAAACGCCAGAACUACAGAAAUGUAGUUGACGAGGAGGAGGUUUAUCGAACUUUCGGCGGAGGUCUCCAAA	< 1e-05	< 1e-05	< 1e-05	
AUAAAAGCGCCAGAACUACAGAAAUGUAGUUGACGAGGAGAAGGUUUAUCUAAUUUUCGGCGGAUGCCUCCAAA	< 1e-05	< 1e-05	< 1e-05	< 1e-05
AUAAAAGAGCCAGAACUACAGAAAUGUAGUUGACGAGGAGGAGGUUUAUCGAAUUUUCGGCGAAUGCCUCCAAA	< 1e-05	< 1e-05		< 1e-05
AUAAAAGCGCCAGAACUACAGAAAUGUAGUUGACGAGGAGGAGGUGUAUCGAAUGUUCGCCGGAUGCCUCCAAA	< 1e-05	< 1e-05		
AUAAAAGCGCCAGAACUACAGAAAUGUAGUUGACGAGGAGGAGGUUUUUCUAAUUUUCGGCGGAUGCCUCCAAA	< 1e-05	< 1e-05		
